This note sets out measurements from patent US20200277374A1 (Alector, published 2020).

A word on the Kd: it is the free concentration of one partner at which half of the binding sites on the other are occupied at equilibrium, for simple one-to-one binding. A higher Kd goes with weaker binding.

Test [1] has as its target T1, human Siglec-7 expressed on human cells (primary monocytes, dendritic cells, macrophages, NK cells, … (human, UniProt Q9Y286 19-467)). In words: cell-based or functional assay.
The target of test [2] is T1, human Siglec-7 expressed on human cells …. In words: cell-based or functional assay. This is another data set of the same source.
The target is the same in test [3]. Kind of test: FACS, human primary monocytes, 10 ug/ml mAb. As to the method: (§1) Initial characterization of Siglec-7 antibodies involved determining their ability to bind Siglec-7 expressed on human primary monocytes, human primary macrophages, human primary dendritic cells, human primary neutrophils, and human primary natural killer (NK) cells. Cells were harvested, plated at 10⁶/ml in a 96 well plate, and incubated in 100 ul PBS containing 2% FBS, 2 mM EDTA and 10 μg/ml Mab and Fc blocking reagent for 1 hour in ice. Cells were washed twice and incubated in 100 ul PBS containing 2% FBS, 2 mM EDTA and 5 ug/ml PE-conjugated secondary antibody for 30 minutes on ice. Cells were washed twice in cold PBS and analyze by flow cytometry on a BD FACS Canto. Data analysis and calculation of MFI values was performed with FlowJo (TreeStar) software version 10.0.7.
(§2) Percent positive binding and mean fluorescent intensity (MFI) values for cell types bound by Siglec-7 antibodies are listed in Table 4A. Binding is compared to an isotype control. The antibodies bind to human primary monocytes, human primary dendritic cells, and human primary macrophages. In Table 4A, “Buffer” refers to cells that were treated only with the PBS buffer described supra; “Secondary Ab” refers to cells that were treated only with the PE-conjugated secondary antibody; “mIgG1,” “mIgG2a,” and “mIgG2b” refer to isotype control antibodies; and “RDS7” refers to commerically available anti-Siglec-7 antibody Mab1138 (R&D Systems; Cat. No. MAB 1138).
Background: Flow cytometry measures light scatter and fluorescence of single cells or particles in a stream.

Test [4] shares this target. In words: FACS, human primary macrophages, 10 ug/ml mAb. The protocol: as §1, §2
For test [5] the target is unchanged. In words: FACS, human primary dendritic cells, 10 ug/ml mAb. The protocol:
as §1, §2

Test [6] deals with T2, Histidine-tagged human Siglec-7 (NovoProtein) (human, UniProt Q9Y286 19-357, limits assumed).
T2 construct: Bought protein; also called purified Siglec-7-his tagged protein; not shown: histidine tag
T2 sequence (Q9Y286 19-357 limits assumed): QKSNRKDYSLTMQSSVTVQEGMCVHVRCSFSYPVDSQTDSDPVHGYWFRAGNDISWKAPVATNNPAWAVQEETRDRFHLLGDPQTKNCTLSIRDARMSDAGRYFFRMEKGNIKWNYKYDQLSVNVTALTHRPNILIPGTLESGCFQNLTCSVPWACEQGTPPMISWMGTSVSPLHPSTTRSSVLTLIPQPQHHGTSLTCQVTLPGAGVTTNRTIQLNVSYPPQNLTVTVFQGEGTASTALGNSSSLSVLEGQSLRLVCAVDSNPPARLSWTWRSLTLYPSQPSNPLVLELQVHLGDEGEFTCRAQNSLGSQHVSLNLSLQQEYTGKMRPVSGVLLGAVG
In words: SPR (BiaCore T200, 25 C), antibody captured on anti-mouse IgG, Siglec-7-His 20 nM, single-concentration kinetics. As to the method: (§3) SPR data was collected at a rate of 10 Hz at 25′ C on a BiaCore T200 instrument. Data analysis was performed using BiaCore T200 Evaluation Software, version 2.0. HBS-EP+ (100 mM HEPES, 1.5 M NaCl, 30 mM EDTA, 0.5% v/v Surfactant P20, pH 7.4) was used as running buffer and for preparing reagents.
(§4) Mouse-derived antibodies (25 nM) against Siglec-7 were captured (60 s contact time, 30 μL/min flow rate, 0 s stabilization time) on a CM5 sensor chip (GE Healthcare) immobilized with anti-mouse IgG. Histidine-tagged human Siglec-7 (NovoProtein) was then flowed over the captured anti-Siglec-7 surface (120 s contact time, 30 μL/min flow rate, 300 s dissociation time). Concentration of antigen ranged from 5 nM to 100 nM, depending on information obtained from an initial screen. Duplicate single-concentration trials were performed and bracketed by a blank (0 nM antigen) sample. The chip surface was regenerated in between cycles using 10 mM glycine-HCl, pH1.7 (60 s contact time, 30 μL/min flow rate, 60 s stabilization time). The resulting SPR signal was obtained as the difference in response from measurements performed on a blank flow cell.
(§5) Affinity constants (KD) were calculated from the ratio kd/kₐ. For one antibody (clone 1E8), we validated the single-concentration analysis with a multiple-concentration approach (five concentrations of antigen used, plus one blank).
(SPR reads the build-up and loss of mass on a sensor chip optically.)

The target of test [7] is T3, Siglec-7-Fc (plate immobilized) (human, UniProt Q9Y286 19-357, limits assumed).
T3 construct: also called Siglec-7-Fc protein; immobilized Siglec-7; not shown: Fc part
T3 sequence (Q9Y286 19-357 limits assumed): as above
In words: RBC solid adhesion assay, plate-coated Siglec-7-Fc, antibody 0.5 or 1.0 ug/ml; % of RBC binding without antibody. The protocol: To determine which antibodies compete with ligand binding to Siglec-7, a red blood cell (RBC) solid adhesion assay was carried out in accordance with standard protocols (Kelm et al., Current Biology, 1994). Red blood cells are highly decorated with glycoproteins containing sialic acids: therefore, the ability of an antibody to block RBC binding to immobilized Siglec-7 can be used to determine ligand interference. Briefly, 5 μg/ml Siglec-7-Fc was coated overnight at RT in 96 well Immunolon plates, then washed with PBS, blocked for one hour with binding buffer (PBS containing %0.25 BSA 1 mM CaCl₂), Siglec-7 antibodies (0.5 μg/ml or 1.0 μg/ml) were bound for one hour at RT with gentle rocking. After removal of unbound antibody, red blood cells were added to each well at a concentration of 3.0×10⁶ cells per ml and incubated at RT for one hour. Unbound RBCs were then carefully washed off 3× with PBS, and water was added to each well for hypotonic lysis of bound RBCs. The plate was transferred to −80° C. for 10 minutes, followed by 37° C. for 15 minutes. Bound RBCs were detected by peroxidase activity, followed by 2N sulfuric acid to stop the reaction. Signal was detected at […]. Data was calculated as a percent of RBC binding to plate bound Siglec-7-Fc in the absence of antibody.

For test [8], the target named is T2, Histidine-tagged human Siglec-7 …. In words: SPR (BiaCore T200, 25 C), antibody captured on anti-mouse IgG, Siglec-7-His 25 nM, single-concentration kinetics. The protocol: as §3, §4, §5

T1 sequence (Q9Y286 19-467): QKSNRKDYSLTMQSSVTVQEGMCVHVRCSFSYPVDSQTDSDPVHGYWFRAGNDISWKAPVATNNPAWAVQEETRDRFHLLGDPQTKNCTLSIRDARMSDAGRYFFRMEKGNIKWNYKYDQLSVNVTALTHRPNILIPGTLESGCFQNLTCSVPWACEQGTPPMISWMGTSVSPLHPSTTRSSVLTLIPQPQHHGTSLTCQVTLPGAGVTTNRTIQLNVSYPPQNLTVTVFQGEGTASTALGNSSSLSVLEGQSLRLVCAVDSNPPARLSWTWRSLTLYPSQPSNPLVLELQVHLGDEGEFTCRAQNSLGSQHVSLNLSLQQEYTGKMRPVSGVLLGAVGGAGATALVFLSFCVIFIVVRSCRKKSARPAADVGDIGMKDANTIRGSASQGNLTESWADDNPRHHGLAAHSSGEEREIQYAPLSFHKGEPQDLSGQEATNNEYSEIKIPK

B1: anti-Siglec-7 antibody 7A3 (antibody, V domains shown)
VH: LVZSGGALVKPGGSLKLSCAASGFTFSNYAMSWVRQTPEKRLEWVASISSGGSYNYYPDSVKGRFTISRDNARNTLYLQMSSLRSKDTAMYYCASQSYGSSYWYFDVWGAGTTVTVSS
VL: DIQMTQZPATLSVTPGDRVSLSCRASQSISEYLHWYHQKSHESPRLLIKFASQSICGIPSRFSGSGSGSDFTLTINSVEPEDVGVYYCQNGHNFPYTFGGGTKLEIK
notes: Variable domains assembled from FR and CDR entries; VL FR1 and VH FR1 hold Z and VH FR1 looks shortened at its N-terminus
As for B1, in test [1], the “Percent Siglec-7 Surface Expression, DCs” value worked out at 11%; the “Percent Siglec-7 Surface Expression, Monocytes” value is 23.7%; the “Percent Siglec-7 Surface Expression, U937 cells” value is 76.3%. Also, in test [2], the “Percent Siglec-7 Surface Expression, Macrophages” value turned out to be 8.3% and the “Percent Siglec-7 Surface Expression, NK cells” value turned out to be 77.1%. Moreover, in test [3], the “% Positive” value stood at 97.9% and the MFI stood at 407. Further, in test [4], the “% Positive” value was determined as 99.7% and the MFI came to 2840. For the same molecule, in test [5], the “% Positive” value is 99.7% and the MFI was found to be 956. Further, the Kd in test [6] worked out at 1 nM. Besides, the “Percent RBC Binding to Siglec-7” value in test [7] stood at 89.5%.

B2: anti-Siglec-7 antibody 3E11 (antibody, V domains shown)
VH: QVQLQQSGAELARPGASVKLSCKASGYIFTDYGITWVKQRTGQGLEWIGEISPRSGETYFNENYRVKATLTADKSSSTAYMQLFSLTSEDSAVYFCAREGNPFTYWGHGTLVTVSA
VL: DVZMTQTPLSLPVSLGDQASISCRSSQSLVHSTGNTYLHWYLQKPGQSPKLLIYKVSNRFCGVPDRFSGSGAGTDFTLKISRVEAEDLGVYFCSQNTHVPYTFGGGTKLEIK
notes: Variable domains assembled from FR and CDR entries
As for B2, in test [1], the “Percent Siglec-7 Surface Expression, DCs” value amounted to 19.9%; the “Percent Siglec-7 Surface Expression, Monocytes” value worked out at 23.9%; the “Percent Siglec-7 Surface Expression, U937 cells” value was determined as 82.4%. For the same molecule, in test [2], the “Percent Siglec-7 Surface Expression, Macrophages” value amounted to 7.4%; the “Percent Siglec-7 Surface Expression, Microglia” value came out at 34.2%; the “Percent Siglec-7 Surface Expression, NK cells” value worked out at 108%. In addition, in test [3], the “% Positive” value was determined as 98.7% and the MFI was 380. Besides, in test [4], the “% Positive” value stood at 99.6% and the MFI is 4040. In addition, in test [5], the “% Positive” value turned out to be 99.6% and the MFI was 2520. This molecule had a Kd in test [8] of 1 nM. For the same molecule, the “Percent RBC Binding to Siglec-7” value in test [7] was determined as 26.8%.

B3: anti-Siglec-7 antibody 2G1 (antibody, V domains shown)
VH: EVKLVESGGTLVKPGGSLKISCAASGFTFSNYDMSWVRQNPEKRLEWVATISSGGDYTYYPDIFKGRFTISRDDAKNALYLQMSSLRSEDTALYYCARHGYGNYDWYFDVWGAGATVTVSS
VL: VLTQSPAIMSASPGEKVTMTCSANSSFIYMYWYQQKPGSSPRLLIFDTSNLASGVPIRFSGSGSGTSYSLTISRMEAEDTATYYCQQWSSSPLTFGGGTKLELK
notes: Variable domains assembled from FR and CDR entries; the printed VL FR1 looks shortened at its N-terminus; also called 2G11 (misprint in text)
As for B3, in test [1], the “Percent Siglec-7 Surface Expression, DCs” value was 1100%; the “Percent Siglec-7 Surface Expression, Monocytes” value came out at 140%; the “Percent Siglec-7 Surface Expression, U937 cells” value was 121%. Moreover, in test [2], the “Percent Siglec-7 Surface Expression, Macrophages” value was determined as 95.7%; the “Percent Siglec-7 Surface Expression, Microglia” value amounted to 106%; the “Percent Siglec-7 Surface Expression, NK cells” value is 114%. In test [3], the “% Positive” value turned out to be 99.4% and the MFI is 577. In test [4], the “% Positive” value is 99.5% and the MFI turned out to be 25700. Besides, in test [5], the “% Positive” value came to 99.7% and the MFI came to 10200. Moreover, the dissociation constant Kd in test [6] came out at 0.1 nM. For the same molecule, in test [7], the “Percent RBC Binding to Siglec-7” value was found to be 14.5%.
